How the values were obtained:
[1] = target: T1, DvCODH (Nitratidesulfovibrio vulgaris, UniProt Q72A99); format: biochemical; conditions: CO-saturated 50 mM HEPES/NaOH pH 8, 2 mM DTE, 20 mM viologen, 30 °C
T1 construct: gene cooS

[2] = target: the molecule itself; experiment: SEC; size exclusion chromatography of the purified enzyme; measured molecular mass compared with the theoretical mass of the dimer

T1 sequence (Q72A99 1-629): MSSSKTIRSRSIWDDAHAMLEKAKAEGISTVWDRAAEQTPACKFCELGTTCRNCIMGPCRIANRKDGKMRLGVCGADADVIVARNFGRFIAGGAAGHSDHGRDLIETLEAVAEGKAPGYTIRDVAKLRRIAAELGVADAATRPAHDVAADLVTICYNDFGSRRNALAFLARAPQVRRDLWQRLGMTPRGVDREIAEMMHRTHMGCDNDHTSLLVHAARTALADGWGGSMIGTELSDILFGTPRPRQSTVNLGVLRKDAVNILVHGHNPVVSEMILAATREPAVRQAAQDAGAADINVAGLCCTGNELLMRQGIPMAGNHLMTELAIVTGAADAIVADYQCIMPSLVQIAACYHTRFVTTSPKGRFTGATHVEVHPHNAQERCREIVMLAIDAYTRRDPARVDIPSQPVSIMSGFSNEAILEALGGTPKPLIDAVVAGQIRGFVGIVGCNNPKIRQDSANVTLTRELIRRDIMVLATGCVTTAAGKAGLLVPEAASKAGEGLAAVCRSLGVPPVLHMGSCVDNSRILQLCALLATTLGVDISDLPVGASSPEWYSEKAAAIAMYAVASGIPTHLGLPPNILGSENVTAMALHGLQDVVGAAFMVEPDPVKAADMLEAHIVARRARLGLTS

C[n+]1ccc(-c2cc[n+](C)cc2)cc1 [MV, methyl viologen]
CO-dependent viologen reduction, relative activity [1]: essential for viologen reduction using the four mediators MV, EV, BV, and diquat (DQ)

B1: ChCODH2 F41A (enzyme, Carboxydothermus hydrogenoformans)
chain: MAKQNLKSTDRAVQQMLDKAKREGIQTVWDRYEAMKPQCGAGETGLCCRHCLQGPCRINPFGDEPKVGICGATAEVIVARGLDRSIAAGAAGHSGHAKHLAHTLKKAVQGKAASYMIKDRTKLHSIAKRLGIPTEGQKDEDIALEVAKAALADFHEKDTPVLWVTTVLPPSRVKVLSAHGLIPAGIDHEIAEIMHRTSMGCDADAQNLLLGGLRCSLADLAGCYMGTDLADILFGTPAPVVTESNLGVLKADAVNVAVHGHNPVLSDIIVSVSKEMENEARAAGATGINVVGICCTGNEVLMRHGIPACTHSVSQEMAMITGALDAMILDYQCIQPSVATIAECTGTTVITTMEMSKITGATHVNFAEEAAVENAKQILRLAIDTFKRRKGKPVEIPNIKTKVVAGFSTEAIINALSKLNANDPLKPLIDNVVNGNIRGVCLFAGCNNVKVPQDQNFTTIARKLLKQNVLVVATGCGAGALMRHGFMDPANVDELCGDGLKAVLTAIGEANGLGGPLPPVLHMGSCVDNSRAVALVAALANRLGVDLDRLPVVASAAEAMHEKAVAIGTWAVTIGLPTHIGVLPPITGSLPVTQILTSSVKDITGGYFIVELDPETAADKLLAAINERRAGLGLPW
notes: Ni-Fe carbon monoxide dehydrogenase 2 (ChCODH2), Carboxydothermus hydrogenoformans, locus Chy_0085; site-directed variant in pET28a; source: E. coli BL21(DE3) with pRKISC, purified (Ni-NTA; size-exclusion chromatography)
stoichiometry N [2]: 2

B2: ChCODH2 wild type (carbon monoxide dehydrogenase 2 of Carboxydothermus hydrogenoformans) (enzyme)
chain: MAKQNLKSTDRAVQQMLDKAKREGIQTVWDRYEAMKPQCGFGETGLCCRHCLQGPCRINPFGDEPKVGICGATAEVIVARGLDRSIAAGAAGHSGHAKHLAHTLKKAVQGKAASYMIKDRTKLHSIAKRLGIPTEGQKDEDIALEVAKAALADFHEKDTPVLWVTTVLPPSRVKVLSAHGLIPAGIDHEIAEIMHRTSMGCDADAQNLLLGGLRCSLADLAGCYMGTDLADILFGTPAPVVTESNLGVLKADAVNVAVHGHNPVLSDIIVSVSKEMENEARAAGATGINVVGICCTGNEVLMRHGIPACTHSVSQEMAMITGALDAMILDYQCIQPSVATIAECTGTTVITTMEMSKITGATHVNFAEEAAVENAKQILRLAIDTFKRRKGKPVEIPNIKTKVVAGFSTEAIINALSKLNANDPLKPLIDNVVNGNIRGVCLFAGCNNVKVPQDQNFTTIARKLLKQNVLVVATGCGAGALMRHGFMDPANVDELCGDGLKAVLTAIGEANGLGGPLPPVLHMGSCVDNSRAVALVAALANRLGVDLDRLPVVASAAEAMHEKAVAIGTWAVTIGLPTHIGVLPPITGSLPVTQILTSSVKDITGGYFIVELDPETAADKLLAAINERRAGLGLPW
notes: Ni-Fe carbon monoxide dehydrogenase 2 (ChCODH2), Carboxydothermus hydrogenoformans, locus Chy_0085; synthesized DNA in pET28a; Carries Fe-S and Ni-Fe clusters (B, C, D); also called ChCODH2 WT; WT; source: E. coli BL21(DE3) with pRKISC, purified (Ni-NTA; size-exclusion chromatography)
binding result [2]: binds

Reference: paper PMC10979024 (Nature Communications, 2024)
